Legend:
Conditions in all cases: label: 5' biotin
[1] = target: T1, Human serum albumin (HSA) (Homo sapiens, UniProt P02768 P02768:25-609); test: EMSA; 25 C 1 h
Procedure: (§1) After that the reaction was incubated at 4° C. for 1 minutes before use. Step 2: 1 µL HSA was mixed with 9 µL of aptamer against HSA and 1 µL of 0.4 µg/µL GHSA was mixed with 9 µL of aptamer against GHSA. Step 3: The reaction from step 2 was incubated at 25° C. for 1 hour and analyzed on 8% polyacrylamide gel at 100 V for 30 minutes. Step 4: Aptamers on the polyacrylamide gel from step 3 were transferred to nylon membrane (Amersham Hybond-N+; GE Healthcare). Classical DNA/RNA transferring method was used. The transferring buffer was SSC (150 mM […] and 15 mM Sodium citrate, pH 7.0) and incubation time was 12 h. Step 5: Aptamer analysis using Phototope®-Star Detection Kit (New England Biolabs) Nylon membrane was removed from the transferring set up and put in the clear plastic container containing solution A (5% Sodium Dodecyl Sulfate (SDS), 125 mM NaCl, 25 mM Sodium Phosphate, pH 7.5). The system was incubated at room temperature for 5 minutes with gentle shaking. The solution was discarded and 10 µL of streptavidin in 20 mL of solution A was added in the reaction container and incubated at room temperature for 5 minutes with gentle shaking. The solution was discarded. Then the membrane was washed 3 times by using solution B (1:10 of solution A in steriled water) with gentle shaking for 5 min. […]

[2] = target: Glycated human serum albumin (GHSA) (Homo sapiens, UniProt P02768 P02768:25-609); test: EMSA; unit as printed (umole); 25 C 1 h; also EMSA positive in Table 6 and direct ELISA positive
Procedure: Step 5: Aptamer analysis using Phototope®-Star Detection Kit (New England Biolabs) Nylon membrane was removed from the transferring set up and put in the clear plastic container containing solution A (5% Sodium Dodecyl Sulfate (SDS), 125 mM NaCl, 25 mM Sodium Phosphate, pH 7.5). The system was incubated at room temperature for 5 minutes with gentle shaking. The solution was discarded and 10 µL of streptavidin in 20 mL of solution A was added in the reaction container and incubated at room temperature for 5 minutes with gentle shaking. The solution was discarded. Then the membrane was washed 3 times by using solution B (1:10 of solution A in steriled water) with gentle shaking for 5 min. Then the washing buffer was discarded before the next round washing. […] in 20 mL of solution A was added in the container. Then the system was incubated at room temperature for 5 minutes with gentle shaking. Then the solution is discarded. The membrane was washed 3 times by solution C (10 mM Tris HCl, 10 mM NaCl, 1 mM […], pH 9.50) with gentle shaking and then solution is discarded. […]
The quantitative binding of G8 aptamer from this invention and clone 9 aptamer from the previous study were analyzed by electromobility shifted assay (EMSA) and results were compared. […]

[3] = target: T1, Human serum albumin (HSA); test: ELONA; indirect ELISA: + at 200, 2, 0.2 nM, - at 20 nM; PBST, room temperature
Description: The binding assay of selected aptamers against HSA and aptamers against GHSA is deteimined by using Indirect Enzyme-Linked Immunosorbent Assay (Indirect ELISA) and Direct Enzyme-Linked Immunosorbent Assay (Direct ELISA), as described below. 3.1. Indirect Enzyme-Linked Immunosorbent Assay (Indirect ELISA) The principle of this experiment is based on two antibodies, which are antibodies against 5' biotinylated aptamer and antibodies against the first antibody. The second antibody is conjugated with horseradish peroxidase enzyme (HRP), which can changes TMB color from blue to be yellow. The yellow color intensity is direct indicator for the target protein concentration. Random selected aptamers in Table 5 and Table 6 were chosen for analysis using this method. Indirect ELISA Protocol Step 1: 0.8 μg of BSA or HSA or GHSA was added in 50 μl of 0.05 M carbonate buffer in 96 well plate (50 μL/well) and incubated at 4° C. for 1 night. In this process, all proteins will be coated on the 96 well plate.
Step 2: The reaction from step 1 was washed 5 times with Phosphate buffer (PBST) (0.05% Tween) using ELISA washing machine (Fluido 2) and tapped for 3-5 times.
Step 8: 50 μL of 0.6 M H_2SO_4 was added in the reaction and immediately measured the $OD_{450\ nm}$ using spectrophotometer.

[4] = target: T1, Human serum albumin (HSA); test: EMSA; 25 C 1 h; indirect ELISA also + at 0.2-200 nM (Table 9)
Procedure: as §1

T1 sequence (P02768 25-609, one chain of several): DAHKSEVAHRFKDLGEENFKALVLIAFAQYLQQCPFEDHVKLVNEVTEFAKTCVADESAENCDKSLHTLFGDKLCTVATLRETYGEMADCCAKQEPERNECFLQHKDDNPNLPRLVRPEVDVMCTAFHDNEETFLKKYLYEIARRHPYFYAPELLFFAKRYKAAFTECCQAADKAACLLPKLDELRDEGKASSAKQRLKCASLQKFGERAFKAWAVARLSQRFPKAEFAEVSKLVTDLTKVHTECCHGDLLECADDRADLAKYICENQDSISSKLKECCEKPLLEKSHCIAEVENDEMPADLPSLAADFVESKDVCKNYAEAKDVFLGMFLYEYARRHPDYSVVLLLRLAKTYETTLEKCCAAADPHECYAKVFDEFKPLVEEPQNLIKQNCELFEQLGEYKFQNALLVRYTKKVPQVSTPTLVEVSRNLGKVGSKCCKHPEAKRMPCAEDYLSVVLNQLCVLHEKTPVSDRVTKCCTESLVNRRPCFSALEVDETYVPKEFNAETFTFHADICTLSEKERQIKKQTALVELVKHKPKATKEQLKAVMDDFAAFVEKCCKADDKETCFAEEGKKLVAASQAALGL
Chain of Glycated human serum albumin (GHSA) (P02768 25-609, one chain of several): as above

B1: H8 (ssDNA)
DNA: ATACCAGCTTATTCAATTCCCCCGGCTTTGGTTTAGAGGTAGTTGCTCATTACTTGTACGCTCCGGATGAGATAGTAAGTGCAATCT
[1]
  binding result: binds

## GGTGCGGTTCGTGCGGTTGTAGTACTCGTGGCCGATAGAGGTAGTTTCG (ssDNA) [G8]
[2]
  binding result: binds

B2: clone 9 (ssDNA)
DNA: TAACTCACTCCATACTCACTTGCTGATTCGCCAACAACACACCCTTAAACAGTCCC
[3]
  binding result: binds

B3: H14 (ssDNA)
DNA: ATACCAGCTTATTCAATTCGCGCACATATACAGGGCTTTACCAGCGGGGAAGGTTAGCGACGCGAGGGGGAGATAGTAAGTGCAATCT
[4]
  binding result: binds
